The record followed here is US20240139329A1 (CALIFORNIA INSTITUTE OF TECHNOLOGY, published 2024).

Experiment [1] has as its target T1, human LRP6 extracellular domain (AA 20-1368) tagged with Fc (human IgG1) (human, UniProt O75581 20-1368).
T1 construct: also called human LRP6-Fc; complete human LRP6 extracellular domain; not shown: human IgG1 Fc
T1 sequence: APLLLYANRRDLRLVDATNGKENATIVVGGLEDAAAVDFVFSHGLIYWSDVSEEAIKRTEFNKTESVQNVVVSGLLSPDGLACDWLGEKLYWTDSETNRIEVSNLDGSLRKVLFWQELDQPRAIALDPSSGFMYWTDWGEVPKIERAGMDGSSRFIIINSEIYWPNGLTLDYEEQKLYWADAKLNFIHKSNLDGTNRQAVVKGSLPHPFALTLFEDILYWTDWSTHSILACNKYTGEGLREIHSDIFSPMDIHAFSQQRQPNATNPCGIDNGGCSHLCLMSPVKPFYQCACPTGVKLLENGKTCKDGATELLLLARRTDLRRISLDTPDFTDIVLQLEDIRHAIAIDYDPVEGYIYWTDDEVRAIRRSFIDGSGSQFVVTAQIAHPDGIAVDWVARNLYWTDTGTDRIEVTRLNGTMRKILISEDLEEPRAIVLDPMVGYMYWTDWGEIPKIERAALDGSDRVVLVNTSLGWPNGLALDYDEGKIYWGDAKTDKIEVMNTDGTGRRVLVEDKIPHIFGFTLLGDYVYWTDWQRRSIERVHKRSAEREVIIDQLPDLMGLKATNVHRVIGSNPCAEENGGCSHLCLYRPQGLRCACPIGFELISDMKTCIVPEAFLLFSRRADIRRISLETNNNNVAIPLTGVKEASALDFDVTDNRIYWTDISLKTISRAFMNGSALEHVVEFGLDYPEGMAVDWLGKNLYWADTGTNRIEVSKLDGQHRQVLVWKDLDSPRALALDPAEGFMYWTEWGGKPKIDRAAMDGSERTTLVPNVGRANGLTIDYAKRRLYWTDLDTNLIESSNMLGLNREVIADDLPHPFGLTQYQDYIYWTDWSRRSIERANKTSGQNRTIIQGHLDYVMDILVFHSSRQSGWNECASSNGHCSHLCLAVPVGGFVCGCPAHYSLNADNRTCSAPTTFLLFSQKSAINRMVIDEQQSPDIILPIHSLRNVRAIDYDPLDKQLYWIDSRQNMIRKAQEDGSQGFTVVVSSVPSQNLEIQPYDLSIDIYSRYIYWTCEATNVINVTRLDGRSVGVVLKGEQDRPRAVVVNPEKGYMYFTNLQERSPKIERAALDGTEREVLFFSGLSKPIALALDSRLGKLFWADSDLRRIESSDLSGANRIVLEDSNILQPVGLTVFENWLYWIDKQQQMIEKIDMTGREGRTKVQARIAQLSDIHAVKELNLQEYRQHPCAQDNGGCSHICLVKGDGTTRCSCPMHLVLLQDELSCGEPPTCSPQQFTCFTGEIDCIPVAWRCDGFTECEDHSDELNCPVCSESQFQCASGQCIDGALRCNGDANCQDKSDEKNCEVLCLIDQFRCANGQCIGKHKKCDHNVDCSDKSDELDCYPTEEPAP
In words: validated interaction (cell culture potency assay and/or SPR).

The target in experiment [2] is T2, human interleukin 3 (IL3), expressed on microarray cells (human, UniProt P08700 20-152).
T2 construct: also called hIL3
T2 sequence: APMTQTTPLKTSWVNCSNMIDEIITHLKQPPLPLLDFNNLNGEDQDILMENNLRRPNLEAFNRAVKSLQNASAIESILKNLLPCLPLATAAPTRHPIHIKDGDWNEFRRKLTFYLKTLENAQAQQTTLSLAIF
In words: cell microarray screen hit (title of Table 4).

Experiment [3] addresses T3, Mouse SCA1 (LY6A), on cells (mouse, UniProt P05533 27-112).
T3 construct: whole, on cells; also called mouse LY6A
T3 sequence: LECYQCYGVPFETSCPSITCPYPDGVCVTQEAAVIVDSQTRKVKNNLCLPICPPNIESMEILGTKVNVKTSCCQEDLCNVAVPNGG
In words: cell microarray, individual capsids, anti-AAV9 detection.

Experiment [4] deals with T4, human pancreatic secretory granule membrane major glycoprotein GP2 (GP2), on cells (human, UniProt P55259 29-512).
T4 construct: also called glycoprotein 2; hGP2
In words: cell microarray screen hit (membrane).

Experiment [5] addresses T5, Human Adeno-Associated Virus Receptor (AAVR) PKD2 domain (AA 401-498) tagged with 6×His (human, UniProt Q8IZA0 401-498).
T5 construct: range 401-498; also called human AAVR PDK2 domain
T5 sequence: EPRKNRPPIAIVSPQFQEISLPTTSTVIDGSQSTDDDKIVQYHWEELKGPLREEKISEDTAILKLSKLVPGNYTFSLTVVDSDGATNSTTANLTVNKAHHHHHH
Put plainly: pull-down, His-tagged bait on Ni-NTA, AAV prey, Western blot (FIG. 21). For orientation: A western blot detects proteins with antibodies after separation by electrophoresis.

T4 sequence (P55259 29-512 limits assumed): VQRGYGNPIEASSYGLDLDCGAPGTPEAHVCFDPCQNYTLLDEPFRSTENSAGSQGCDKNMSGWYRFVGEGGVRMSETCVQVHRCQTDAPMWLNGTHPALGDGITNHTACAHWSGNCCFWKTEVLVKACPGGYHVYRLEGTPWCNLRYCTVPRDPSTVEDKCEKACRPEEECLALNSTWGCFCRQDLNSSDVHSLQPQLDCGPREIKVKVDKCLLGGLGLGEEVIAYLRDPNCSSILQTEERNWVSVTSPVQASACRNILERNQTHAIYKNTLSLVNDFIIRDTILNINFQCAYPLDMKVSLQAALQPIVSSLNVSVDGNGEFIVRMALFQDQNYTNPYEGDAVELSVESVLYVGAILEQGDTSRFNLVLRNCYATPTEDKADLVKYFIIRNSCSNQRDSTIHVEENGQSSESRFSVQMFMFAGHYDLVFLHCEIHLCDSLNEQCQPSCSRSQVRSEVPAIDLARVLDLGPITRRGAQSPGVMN

B1: AAV9-X1.1 (other)
chain: MAADGYLPDWLEDNLSEGIREWWALKPGAPQPKANQQHQDNARGLVLPGYKYLGPGNGLDKGEPVNAADAAALEHDKAYDQQLKAGDNPYLKYNHADAEFQERLKEDTSFGGNLGRAVFQAKKRLLEPLGLVEEAAKTAPGKKRPVEQSPQEPDSSAGIGKSGAQPAKKRLNFGQTGDTESVPDPQPIGEPPAAPSGVGSLTMASGGGAPVADNNEGADGVGSSSGNWHCDSQWLGDRVITTSTRTWALPTYNNHLYKQISNSTSGGSSNDNAYFGYSTPWGYFDFNRFHCHFSPRDWQRLINNNWGFRPKRLNFKLFNIQVKEVTDNNGVKTIANNLTSTVQVFTDSDYQLPYVLGSAHEGCLPPFPADVFMIPQYGYLTLNDGSQAVGRSSFYCLEYFPSQMLRTGNNFQFSYEFENVPFHSSYAHSQSLDRLMNPLIDQYLYYLSRTIDGAATKNQTLKFSVAGPSNMAVQGRNYIPGPSYRQQRVSTTVTQNNNSEFAWPGASSWALNGRNSLMNPGPAMASHKEGEDRFFPLSGSLIFGKQGTGRDNVDADKVMITNEEEIKTTNPVATESYGQVATNHQSAQGNNTRSVAQAQTGWVQNQGILPGMVWQDRDVYLQGPIWAKIPHTDGNFHPSPLMGGFGMKHPPPQILIKNTPVPADPPTAFNKDKLNSFITQYSTGQVSVEIEWELQKENSKRWNPEIQYTSNYYKSNNVEFAVNTEGVYSEPRPIGTRYLTRNL
notes: also called AAV-X1.1; X1B10
Regarding B1, the binding result in experiment [1] is listed as “binds”; in experiment [2], “binds”; in experiment [3], “no binding”; in experiment [4], “binds”; in experiment [5] it was “binds”.

B2: AAV.CAP-Mac (other)
chain: MAADGYLPDWLEDNLSEGIREWWALKPGAPQPKANQQHQDNARGLVLPGYKYLGPGNGLDKGEPVNAADAAALEHDKAYDQQLKAGDNPYLKYNHADAEFQERLKEDTSFGGNLGRAVFQAKKRLLEPLGLVEEAAKTAPGKKRPVEQSPQEPDSSAGIGKSGAQPAKKRLNFGQTGDTESVPDPQPIGEPPAAPSGVGSLTMASGGGAPVADNNEGADGVGSSSGNWHCDSQWLGDRVITTSTRTWALPTYNNHLYKQISNSTSGGSSNDNAYFGYSTPWGYFDFNRFHCHFSPRDWQRLINNNWGFRPKRLNFKLFNIQVKEVTDNNGVKTIANNLTSTVQVFTDSDYQLPYVLGSAHEGCLPPFPADVFMIPQYGYLTLNDGSQAVGRSSFYCLEYFPSQMLRTGNNFQFSYEFENVPFHSSYAHSQSLDRLMNPLIDQYLYYLSRTINGSGQNQQTLKFSVAGPSNMAVQGRNYIPGPSYRQQRVSTTVTQNNNSEFAWPGASSWALNGRNSLMNPGPAMASHKEGEDRFFPLSGSLIFGKQGTGRDNVDADKVMITNEEEIKTTNPVATESYGQVATNHQSAQLNTTKPIAQAQTGWVQNQGILPGMVWQDRDVYLQGPIWAKIPHTDGNFHPSPLMGGFGMKHPPPQILIKNTPVPADPPTAFNKDKLNSFITQYSTGQVSVEIEWELQKENSKRWNPEIQYTSNYYKSNNVEFAVNTEGVYSEPRPIGTRYLTRNL
notes: also called CAP-C1
For B2, the binding result in experiment [1] was “binds”; in experiment [2], “binds”; in experiment [3], “no binding”; in experiment [4], “binds”; in experiment [5] it was “binds”.
